Data on 1 molecule can be found in patent US20140302021A1 (ONCLAVE THERAPEUTICS, published 2014).

This assay addresses T1, CGGHEDT (SEQ ID NO: 17) conjugated to Ovalbumin (also: conjugated to ovalbumin).
T1 construct: Peptide-carrier conjugate used as the ELISA antigen
T1 peptide: CGGHEDT
Description: competitive binding ELISA. The source says: A competitive binding ELISA has been established to measure binding of humanized 2A4 to its antigen (CGGHEDT (SEQ ID NO: 17) when conjugated to Ovalbumin) compared to the reference standard.
In general terms: In an ELISA, binding on a coated surface is turned into a signal by an enzyme label.

No end group written: not given here.

B1: humanized 2A4 antibody (IgG1, kappa isotype version of murine 2A4) (antibody, V domains shown)
VH: EVQLVESGGGLVQPGGSLRLSCAASGFTFNTYAMYWIRQAPGKGLEWVARIRSKSNNYAIYYADSVKDRFTISRDDSKNSLYLQMNSLKTEDTAVYYCARPYSDSFAYWGQGTLVTVSS
VL: DVVMTQSPLSLPVTPGEPASISCRSSQSLVHSTGNTYLHWYLQKPGQSPQLLIYKVSNRFSGVPDRFSGSGSGTDFTLKISRVEAEDVGVYYCSQSTHVPFTFGGGTKVEIKR
modifications: N-linked glycosylation at the consensus sequence, positions 299 to 301
notes: Human IgG1 of G1m(3) allotype, kappa; also called h2A4; humanized 2A4 drug substance
With B1, the binding result is listed as “binds”.
